Experimental findings from US20210009706A1 (JIANGSU HENGRUI MEDICINE, published 2021) are described below.

For test [1], the target named is T1, Human CD27-HisFc (human, UniProt P26842 21-192).
T1 construct: Bought reagent; also called CD27-HisFc (Sino Biological #10039-H03H); human CD27-HisFc fusion protein; not shown: His tag and Fc
T1 sequence (looked up): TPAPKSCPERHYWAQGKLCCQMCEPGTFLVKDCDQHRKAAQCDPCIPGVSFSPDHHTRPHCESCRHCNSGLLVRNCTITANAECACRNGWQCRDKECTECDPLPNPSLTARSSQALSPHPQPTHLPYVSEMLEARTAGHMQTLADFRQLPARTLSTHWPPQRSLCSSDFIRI
The test is described as follows: BLI (Octet RED96), CD27-HisFc captured on AHC sensor, Fab in solution, 1:1 Langmuir fit. The source says:
The antibody Fab fragment of each unique sequence with addition of histidine tag at its C-terminus was overexpressed using E. coli expression system, and then purified by Ni-NTA affinity resin. […] The collected data was processed by Data Acquisition 7.1 software and fitted to a 1:1 Langmuir model curve. The antibody mAb077 with the best binding capacity was obtained by screening for further analysis and development experiments.

Test [2] deals with T2, human CD27-his antigen (Yiqiao Shenzhou #10039-H08H) (human, UniProt P26842 21-192).
T2 construct: Bought reagent; also called huCD27-his (Sino Biological); not shown: His tag
T2 sequence (looked up): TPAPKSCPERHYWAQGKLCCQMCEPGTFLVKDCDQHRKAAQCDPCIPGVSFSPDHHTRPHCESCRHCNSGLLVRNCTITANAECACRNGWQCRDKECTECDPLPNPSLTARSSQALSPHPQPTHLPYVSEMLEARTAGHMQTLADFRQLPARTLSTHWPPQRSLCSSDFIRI
Briefly: SPR (Biacore T200), antibody captured on protein A chip, CD27-his as analyte, 1:1 Langmuir fit. The source says: The protein A biosensor chip was used to affinity capture the antibody molecule to be tested, and then the human CD27-his antigen (Yiqiao Shenzhou #10039-H08H) of various gradient concentrations was flowed on the surface of the chip, and the reaction signal was detected in real time with the Biacore T200 instrument to obtain the association and dissociation curve. After the dissociation of each experimental cycle was completed, the biosensor chip was washed and regenerated with glycine-hydrochloric acid regeneration solution (pH 1.5). BIAevaluation version 4.1 and GE software were used to fit the data with a (1:1) Langmuir model, the affinity values were obtained as shown in the table below. The affinity of the mutant molecule 077N74T is slightly higher than that of the original mAb077 molecule but there is no significant difference.

A further test has as its target T3, Murine CD27-HisFc (murine, UniProt P41272 24-182, limits assumed).
T3 construct: not shown: His tag and Fc
T3 sequence (looked up): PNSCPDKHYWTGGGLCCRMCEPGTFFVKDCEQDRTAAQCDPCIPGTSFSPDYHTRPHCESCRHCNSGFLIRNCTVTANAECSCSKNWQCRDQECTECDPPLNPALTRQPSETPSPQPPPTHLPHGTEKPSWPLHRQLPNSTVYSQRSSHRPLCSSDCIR
Briefly: BLI (Octet RED96), 1:1 Langmuir fit; format for IgG not described.

Another test deals with Macaca CD27-Fc (Macaca). Described as above.
The target in test [3] is T1, Human CD27-HisFc. The test is described as above.
A further test addresses T4, Human CD27-His (human, UniProt P26842 21-192).
T4 construct: also called CD27-His (Sino Biological #10039-H08B1); not shown: His tag
T4 sequence (looked up): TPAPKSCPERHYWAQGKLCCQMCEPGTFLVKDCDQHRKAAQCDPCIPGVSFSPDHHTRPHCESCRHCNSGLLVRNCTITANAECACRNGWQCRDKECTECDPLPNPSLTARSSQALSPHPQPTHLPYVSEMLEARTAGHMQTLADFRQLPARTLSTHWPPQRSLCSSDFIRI
The description is as above.

B1: mAb077-Fab (Fab, V domains shown)
VH: EVQLVESGGGLVQPGGSLRLSCAASGFTFSGYGIHWVRQAPGKGLEWIGWINPNRGSTKYAQKFQGRVTISRDNSKNTLYLQLNSLRAEDTAVYYCARDPGYTWYFDVWGQGTLVTVSS
VL: DIQLTQSPSSLSASVGDRVTITCRASQDISSDLAWYQQKPGKAPKLLIYAASTLQSGVPSRFSGSGSGTDFTLTISSLQPEDFATYYCQQRDAWPPTFGQGTKVEIK
notes: only the variable domains are tied to the Fab; also called mAb077 Fab fragment; mAb77
In the test with Human CD27-HisFc [1], B1 displayed a Kd of 4.08 nM, a koff of 0.00121 s⁻¹ and an on-rate (kon) of 296000 M⁻¹ s⁻¹.

B2: 077N74T (antibody, V domains shown)
VH: EVQLVESGGGLVQPGGSLRLSCAASGFTFSGYGIHWVRQAPGKGLEWIGWINPNRGSTKYAQKFQGRVTISRDTSKNTLYLQLNSLRAEDTAVYYCARDPGYTWYFDVWGQGTLVTVSS
VL: DIQLTQSPSSLSASVGDRVTITCRASQDISSDLAWYQQKPGKAPKLLIYAASTLQSGVPSRFSGSGSGTDFTLTISSLQPEDFATYYCQQRDAWPPTFGQGTKVEIKR
notes: The light chain is the same as in mAb077; also called mutant molecule 077N74T; 077N74T antibody
Regarding B2, in test [2], binding was characterised by a dissociation constant (Kd) of 0.261 nM, the off-rate constant (koff) was determined as 6.75e-05 s⁻¹ and the kon is 259000 M⁻¹ s⁻¹.

B3: mAb077-IgG (antibody, V domains shown)
VH: EVQLVESGGGLVQPGGSLRLSCAASGFTFSGYGIHWVRQAPGKGLEWIGWINPNRGSTKYAQKFQGRVTISRDNSKNTLYLQLNSLRAEDTAVYYCARDPGYTWYFDVWGQGTLVTVSS
VL: DIQLTQSPSSLSASVGDRVTITCRASQDISSDLAWYQQKPGKAPKLLIYAASTLQSGVPSRFSGSGSGTDFTLTISSLQPEDFATYYCQQRDAWPPTFGQGTKVEIKR
notes: also called mAb77
Consider B3, for which the Kd with Murine CD27-HisFc worked out at 0.0304 nM; with Macaca CD27-Fc, 0.562 nM; with Human CD27-HisFc [3], 0.137 nM; in test [2] it was 0.335 nM. Moreover, the koff was found to be 1.33e-05 s⁻¹ with Murine CD27-HisFc, 4.26e-05 s⁻¹ with Macaca CD27-Fc, 2.17e-05 s⁻¹ with Human CD27-HisFc [3] and 8.34e-05 s⁻¹ in test [2]. Also, the kon with Murine CD27-HisFc stood at 438000 M⁻¹ s⁻¹; with Macaca CD27-Fc it was 75800 M⁻¹ s⁻¹; in the test with Human CD27-HisFc [3], 158000 M⁻¹ s⁻¹; in test [2] it was 249000 M⁻¹ s⁻¹.

B4: 1F5-IgG (antibody, V domains shown)
VH: QVQLVESGGGVVQPGRSLRLSCAASGFTFSSYDMHWVRQAPGKGLEWVAVIWYDGSNKYYADSVKGRFTISRDNSKNTLYLQMNSLRAEDTAVYYCARGSGNWGFFDYWGQGTLVTVSS
VL: DIQMTQSPSSLSASVGDRVTITCRASQGISRWLAWYQQKPEKAPKSLIYAASSLQSGVPSRFSGSGSGTDFTLTISSLQPEDFATYYCQQYNTYPRTFGQGTKVEIK
On to B4, for which, in the test with Macaca CD27-Fc, binding was characterised by a dissociation constant (Kd) of 2.13 nM, the koff amounted to 0.000243 s⁻¹ and the kon came out at 114000 M⁻¹ s⁻¹. In the test with Human CD27-His, this molecule showed a Kd of 1.39 nM, a koff of 9.15e-05 s⁻¹ and a kon of 65800 M⁻¹ s⁻¹.
